Reference: patent publication EP4814000A1
Where two headings read alike, the source gives them in different places.

Columns and labels:
[1] = target: RSV B-003m-P215S-1×GCN4t-F190S (RSV B); experiment: flow cytometry, Expi293F cells, Lipofectamine 2000-mRNA; mRNA RQ3
[2] = target: RSV B-003m-P215S-1×GCN4t-C486D-C489D (RSV B); experiment: as above
[3] = target: RSV B-003m-P215S-1×GCN4t-D92E (RSV B); experiment: as above
[4] = target: RSV B-003m-P215S-1×GCN4t (RSV B); experiment: as above
[5] = target: RSV B-003m-P215S-1×GCN4t-G46S (RSV B); experiment: as above
RSV B-003m-P215S (RSV B) [6] = experiment: as above
[7] = target: RSV B-003m-P215S-1×GCN4t-C102A-C362S (RSV B); experiment: as above
[8] = target: RSV B-003m-P215S-1×GCN4t-C155S-C290S (RSV B); experiment: as above
[9] = target: RSV B-003m-P215S-1×GCN4t-ori_linker (RSV B); experiment: as above
003m-P215S-2×GCN4t (RSV) [10] = experiment: flow cytometry, Expi293F cells, Lipofectamine 2000-mRNA
003m-P215S (RSV) [11] = experiment: as above
003M-P215S-L (RSV) = experiment: as above
003M-P215S-L-3N (RSV) = experiment: as above
003M-P215S-S (RSV) = experiment: as above
003m-P215S-S-3N [12] = experiment: as above
003m-P215S-1×GCN4t (RSV) [13] = experiment: flow cytometry, Expi293F cells, Lipofectamine 2000-mRNA; row 003m-P215S-1×GCN4t-opti3
[14] = target: RSV B-003m-P215S-1×GCN4t-F190S (RSV B); experiment: flow cytometry, Expi293F cells, Lipofectamine 2000-mRNA; mRNA RQ1
[15] = target: RSV B-003m-P215S-1×GCN4t-D92E (RSV B); experiment: as above
RSV B-003m-P215S (RSV B) [16] = experiment: as above
[17] = target: RSV B-003m-P215S-1×GCN4t-ori_linker (RSV B); experiment: as above
003m-P215S-ΔF111 (RSV) [18] = experiment: flow cytometry, Expi293F cells, Lipofectamine 2000-mRNA
003m-P215S (RSV) [19] = experiment: as above; remark: listed apart in the source
003m-P215S-ΔF111-S-3N [20] = experiment: as above
003m-P215S-1×GCN4t (RSV) [21] = experiment: as above
[22] = target: 003m-P215S-ΔF111-1×GCN4t (RSV); experiment: as above
003m-P215S-S-3N [23] = experiment: as above; remark: listed apart in the source
003m-P215S-2×GCN4t (RSV) [24] = experiment: as above; remark: listed apart in the source
003m-P215S (RSV) [25] = experiment: as above; remark: listed apart in the source
003m-P215S-ΔF111 (RSV) [26] = experiment: flow cytometry, Expi293F cells, mRNA-LNP (RL151)
003m-P215S (RSV) [27] = experiment: flow cytometry, Expi293F cells, mRNA-LNP (RL151)
003m-P215S-ΔF111-S-3N [28] = experiment: flow cytometry, Expi293F cells, mRNA-LNP (RL151)
003m-P215S-1×GCN4t (RSV) [29] = experiment: flow cytometry, Expi293F cells, mRNA-LNP (RL151)
[30] = target: 003m-P215S-ΔF111-1×GCN4t (RSV); experiment: flow cytometry, Expi293F cells, mRNA-LNP (RL151)
003m-P215S-S-3N [31] = experiment: flow cytometry, Expi293F cells, mRNA-LNP (RL151)
003m-ΔCys (RSV) = experiment: flow cytometry, Expi293F cells transfected with the antigen's mRNA
009m-Cys-ΔCys (RSV) = experiment: as above
003m-DS (RSV) = experiment: as above
007m-Cys (RSV) = experiment: as above
DS-Cav1 (RSV) = experiment: as above

Row | Substance | MFI [1] | MFI [2] | MFI [3] | MFI [4] | MFI [5] | MFI (RSV B-003m-P215S (RSV B) [6]) | MFI [7] | MFI [8] | MFI [9] | MFI (003m-P215S-2×GCN4t (RSV) [10]) | MFI (003m-P215S (RSV) [11]) | MFI (003M-P215S-L (RSV)) | MFI (003M-P215S-L-3N (RSV)) | MFI (003M-P215S-S (RSV)) | MFI (003m-P215S-S-3N [12]) | MFI (003m-P215S-1×GCN4t (RSV) [13]) | MFI [14] | MFI [15] | MFI (RSV B-003m-P215S (RSV B) [16]) | MFI [17] | other results
1 | AM14-AF488 (antibody) | 11200 | 7590 | 814 | 5060 | 4100 | 353000 | 4430 | 47600 | 182 | 1890 | 90100 | 4540 | 17500 | 5620 | 42400 | 3430 | 11100 | 763 | 496000 | 175 | MFI (003m-P215S-ΔF111 (RSV) [18]): 1.52e+06; MFI (003m-P215S (RSV) [19]): 759000; MFI (003m-P215S-ΔF111-S-3N [20]): 1.08e+06; MFI (003m-P215S-1×GCN4t (RSV) [21]): 5650; MFI [22]: 12500; MFI (003m-P215S-S-3N [23]): 127000; MFI (003m-P215S-2×GCN4t (RSV) [24]): 2680; MFI (003m-P215S (RSV) [25]): 338000; MFI (003m-P215S-ΔF111 (RSV) [26]): 45200; MFI (003m-P215S (RSV) [27]): 20000; MFI (003m-P215S-ΔF111-S-3N [28]): 49100; MFI (003m-P215S-1×GCN4t (RSV) [29]): 4180; MFI [30]: 821; MFI (003m-P215S-S-3N [31]): 5920; MFI (003m-ΔCys (RSV)): 8380; MFI (009m-Cys-ΔCys (RSV)): 148000; MFI (003m-DS (RSV)): 10100; MFI (007m-Cys (RSV)): 610000; MFI (DS-Cav1 (RSV)): 122000
2 | D25-AF488 (antibody) | 13100 | 7160 | 2110 | 6190 | 4220 | 265000 | 16000 | 93500 | 515 | 2150 | 77200 | 5820 | 23400 | 8920 | 48800 | 4990 | 13500 | 2250 | 364000 | 480 | MFI (003m-P215S-ΔF111 (RSV) [18]): 1.02e+06; MFI (003m-P215S (RSV) [19]): 486000; MFI (003m-P215S-ΔF111-S-3N [20]): 704000; MFI (003m-P215S-1×GCN4t (RSV) [21]): 8630; MFI [22]: 14700; MFI (003m-P215S-S-3N [23]): 148000; MFI (003m-P215S-2×GCN4t (RSV) [24]): 5120; MFI (003m-P215S (RSV) [25]): 270000; MFI (003m-P215S-ΔF111 (RSV) [26]): 37300; MFI (003m-P215S (RSV) [27]): 16400; MFI (003m-P215S-ΔF111-S-3N [28]): 44800; MFI (003m-P215S-1×GCN4t (RSV) [29]): 3880; MFI [30]: 682; MFI (003m-P215S-S-3N [31]): 6730; MFI (003m-ΔCys (RSV)): 16200; MFI (009m-Cys-ΔCys (RSV)): 136000; MFI (003m-DS (RSV)): 37100; MFI (007m-Cys (RSV)): 229000; MFI (DS-Cav1 (RSV)): 159000
